Values quoted from earlier work in publication PMC11277083, “A Natural Bioactive Peptide from Pinctada fucata Pearls Can Be Used as a Potential Inhibitor of the Interaction between SARS-CoV-2 and ACE2 against COVID-19” (International Journal of Molecular Sciences, 2024).

Tested on: SARS-CoV-2 pseudoparticle
Conditions: pretreatment; blocking the interaction between ACE2 and the RBD

B1: human defensin 5 (HD5): human defensin 5 (peptide, UniProt Q01523 20-94, looked up)
Defensin alpha 5: ESLQERADEATTQKQSGEDNQDLAISFAGNGLSALRTSGSQARATCYCRTGRCATRESLSGVCEISGRLYRLCCR
modifications: Defensin-5
- effect on SARS-CoV-2 pseudoparticle infection: could reduce SARS-CoV-2 pseudoparticle infection
